Experimental data as given in patent US10995116B2, “Peptide-induced NK cell activation” (University of Southampton, priority 2014, dated 2021).
Where two headings read alike, the source gives them in different places.

Experiments:
[1] = target: T1, HLA-Cw*0102 (Homo sapiens, UniProt P10321, A176E/A330V/A35S/A97T/C350S/D114A/D33F/L171W/L180R/L218V/M285V/M309V/M331V/P208H/Q277E/Q291P/R121W/R243W/R30K/S123C/S140Y/S297R/T329A/T363A/V272M/V319A); conditions: control peptide, stated as known; cited from earlier work
[2] = target: T2, KIR2DS2 (Homo sapiens, UniProt P43631); assay: pVav1/Vav1 Western blot, KIR2DS2-transfected NK cell line plus peptide-loaded HLA-C*0304:ICP47:721.221 cells; format: cell-based; parameters: expressed in transfected cells; host or cells: NKL cell line transfected with KIR2DS2; target cells L721.221-HLA-C*0304-ICP47; conditions: peptide 20 μM, 5 minutes
Description: FIG. 7 1×10^6 L721.221-HLA-C*0304-ICP47 cells were incubated overnight at 26° C. with indicated peptides at a concentration of 20 μM. The cells were then incubated with the NKL cell line transfected with KIR2DS2 or transfected with KIR2DL2 for 5 minutes. The cells were lysed in 1% NP-40 and then analysed by Western blotting using antibodies to pVav1 and then following stripping of the membrane to Vav1. Shown are Western blots around the 98 kDa region, and below them the corresponding densitometries for 2 independent experiments.
With reference to FIG. 7, 1×10^6 HLA-C*0304:ICP47:721.221 cells were incubated overnight at 26° C. with indicated peptides at a concentration of 20 μM. The cells were then incubated with the NK cell line transfected with KIR2DS2 for 5 minutes. The cells were lysed in 1% NP-40 and then analysed by Western blotting using antibodies to pVav1 and then following stripping of the membrane to Vav1. Shown is a Western blots around the 98kDa region, and below them the corresponding densitometries for 3 independent experiments.
Target sequence in this assay (P43631 22-304): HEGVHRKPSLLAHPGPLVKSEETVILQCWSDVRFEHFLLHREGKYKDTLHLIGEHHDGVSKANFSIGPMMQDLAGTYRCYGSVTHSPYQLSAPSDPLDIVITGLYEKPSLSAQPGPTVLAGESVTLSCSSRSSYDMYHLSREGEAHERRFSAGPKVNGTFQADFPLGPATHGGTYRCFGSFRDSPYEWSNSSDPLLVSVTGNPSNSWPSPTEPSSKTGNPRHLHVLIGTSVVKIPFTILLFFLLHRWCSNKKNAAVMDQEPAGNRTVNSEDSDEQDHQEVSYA

[3] = test system: NK cells expressing KIR2DS2; assay: pVav1/Vav1 Western blot, NK cell line transfected with KIR2DS2 or KIR2DL2 plus peptide-loaded L721.174 cells; format: cell-based; conditions: peptide 20 μM, 5 minutes
Description: (§1) FIG. 6 LNPSVAATL (SEQ ID NO: 1) activates NK cells expressing KIR2DS2. A. L721.174 cells were incubated with indicated peptides. The cells were then incubated with the NK cell line transfected with KIR2DS2. The cells were lysed and the KIR2DS2 was then immunoprecipitated from the mixture using the GL183 antibody coupled to protein-G beads. The immune precipitate was analysed by Western blotting using a phosphotyrosine antibody. The membrane was then stripped and reprobed with an antibody to DAP12 the molecule that transduces a positive signal from KIR2DS2. Shown are the regions on the blots at the level of DAP12 (12-15kDa). B. L721.174 cells were incubated with indicated peptides. The cells were then incubated with the NK cell line transfected with KIR2DS2 or transfected with KIR2DL2. The cells were lysed in 1% NP-40 and then analysed by Western blotting using antibodies to pVav1 and then following stripping of the membrane to Vav1. […]
(§2) With reference to FIG. 6A, 1×10^6 L721.174 cells were incubated overnight at 26° C. with indicated peptides at a concentration of 20 μM. […] The immune precipitate was analysed by Western blotting using a phosphotyrosine antibody. […] The cells were lysed in 1% NP-40 and then analysed by Western blotting using antibodies to pVav1 and then following stripping of the membrane to Vav1. […]

[4] = test system: DAP12; assay: DAP12 phosphorylation: KIR2DS2 immunoprecipitation and phosphotyrosine Western blot, NK cell line transfected with KIR2DS2 plus peptide-loaded L721.174 cells; format: cell-based; conditions: peptide 20 μM, 5 minutes
Description: as §1, §2

[5] = test system: L721.174 cells; assay: Cytotoxicity of NK cell clones against peptide-loaded L721.174 cells (Live/Dead fixable far-red stain); format: cell-based; conditions: KIR2DS2-positive NK cell clones 4, 6, 9 only; not KIR2DS2-negative clone 27
Description: (§3) L721.174 cells were incubated in the presence or absence of the peptides VAPWNSFAL (SEQ ID NO: 49) and the LNPSVAATL (SEQ ID NO: 1). The cells were then labeled with the cell tracker orange dye, and then cultured with KIR2DS2-positive NK cell clones (clones 4,6,9) or a KIR2DS2-negative NK cell clone (clone 27). Cytotoxicity was then determined using Live/Dead® fixable far-red stain.
as §3, with “With reference to FIG. 3, 3×10^5 L721.174” for “L721.174”, “incubated at 26° C. overnight” for “incubated”, “cultured for four hours” for “cultured”

[6] = target: HLA-C*0102 (Homo sapiens, UniProt P10321, A176E/A330V/A35S/A97T/C350S/D114A/D33F/L171W/L180R/L218V/M285V/M309V/M331V/P208H/Q277E/Q291P/R121W/R243W/R30K/S123C/S140Y/S297R/T329A/T363A/V272M/V319A); assay: HPLC of HLA-C binding peptides eluted from 721.221 cells expressing HLA-C*0102:T2A:E19/3K:LNPSVAATL; conditions: peak in the eluate at the retention time of the control peptide
Description: FIG. 8 The MHC class I-negative 721.221 cell line was transfected with a construct expressing HLA-C*0102:T2A:E19/3K:LNPSVAATL (SEQ ID NO: 1). The cells were washed and then the HLA-C binding peptides eluted using 10% acetic acid. The eluate was analysed by HPLC using a C18 column and a 4-60% acetonitrile gradient. The resulting profile was compared to the profile of the LNPSVAATL (SEQ ID NO: 1) peptide alone. The peptide elution peak is indicated with an arrow.
The cell line 721.221 expressing HLA-C*0102:T2A:E19/3K:LNPSVAATL. Following elution of the HLA-C binding peptides using 10% acetic acid the peptides were analysed by HPLC using a C18 column and an acetonitrile gradient.

[7] = target: T2, KIR2DS2; assay: KIR2DS2-PE tetramer staining of peptide-loaded L721.174 cells by flow cytometry; format: binding; parameters: made in house; conditions: peptide 200 μM overnight at 26° C.
Description: (SEQ ID NO: 1) peptide. A. The KIR2DS2 protein was expressed with a biotinylation C-terminal tag. Following biotinylation with the BirA enzyme, the KIR2DS2 protein was incubated with streptavidin-phycoerythrin to form fluorescent KIR2DS2-tetramers (KIR2DS2-PE). L721.174 cells were then incubated with indicated peptides. Cells were then stained with KIR2DS2-PE and analysed by flow cytometry. Shown are histogram plots. The bold numbers represent the mean fluorescent staining intensity of the KIR2DS2-PE staining of the cells in the presence of peptide and the non-bold numbers the staining in the absence of peptide. B. Represents the mean and standard error fluorescent intensities of the experiment in “A” following replicate experiments.
A. L721.174 cells were incubated with indicated peptides. Cells were then stained with KIR2DS2-PE (see FIG. 4) and analysed by flow cytometry. Shown are histogram plots. […]
With reference to FIG. 4A, the KIR2DS2 protein was expressed as a recombinant protein with a biotinylation C-terminal tag. […] Cells were then stained with KIR2DS2-PE and analysed by flow cytometry. […]
With reference to FIG. 5A, 3×10^5 L721.174 cells were incubated overnight at 26° C. with indicated peptides at a concentration of 200 μM. Cells were then stained with KIR2DS2-PE (see FIG. 4) and analysed by flow cytometry. […]
Target sequence in this assay (P43631 22-245 limits assumed): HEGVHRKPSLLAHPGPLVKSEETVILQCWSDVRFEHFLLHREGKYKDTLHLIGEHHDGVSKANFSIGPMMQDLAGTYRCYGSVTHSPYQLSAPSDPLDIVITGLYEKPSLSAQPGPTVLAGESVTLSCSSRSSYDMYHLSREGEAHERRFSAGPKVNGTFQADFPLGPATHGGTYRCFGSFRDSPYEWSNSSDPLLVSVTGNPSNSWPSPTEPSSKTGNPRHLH

[8] = test system: NK cells from KIR2DS2-positive or KIR2DS2-negative donor; assay: CD107a (LAMP) degranulation of CH-L antibody positive NK cells cultured with peptide-loaded L721.174 cells; format: cell-based
Description: A. cells were incubated in the presence or absence of peptides, and then cultured with NK cells from either a KIR2DS2-positive or KIR2DS2-negative donor. The level of CD107a (LAMP) expression was measured on NK cells positive for the CH-L antibody. This antibody binds to KIR2DS2, KIR2DL2 and KIR2DL3. B. Summary data from 5 KIR2DS2-positive and 6 KIR2DS2-negative donors tested as per panel A of FIG. 2. To compare the different donors the data are normalized to 100% for the no peptide condition.
With reference to FIG. 2A, 3×10^5 L721.174 cells were incubated at 26° C. overnight in the presence or absence of peptides, and then cultured for four hours with NK cells from either a KIR2DS2-positive or KIR2DS2-negative donor. The level of CD107a (LAMP) expression was measured on NK cells positive for the CH-L antibody. This antibody binds to KIR2DS2, KIR2DL2 and KIR2DL3. […] With reference to FIG. 2B, summary data from 5 KIR2DS2-positive and 6 KIR2DS2-negative donors were tested as per panel A of FIG. 2. To compare the different donors the data are normalized to 100% for the no peptide condition.

[9] = target: T1, HLA-Cw*0102; assay: Peptide binding to HLA-Cw*0102: cell surface MHC class I staining of L721.174 cells by flow cytometry; format: cell-based; conditions: increasing peptide concentrations, overnight at 26° C.
Description: (§4) The HLA-Cw*0102-positive cell line L721.174 was incubated with increasing concentrations of the LNPSVAATL (SEQ ID NO: 1) peptide or a control peptide VAPWNSLSL (SEQ ID NO: 48). Cells were stained for cell surface of MHC class I and analysed by flow cytometry. The mean fluorescence intensity of cell surface MHC Class I was plotted against the peptide concentration.
as §4, with “With reference to FIG. 1, the HLA-Cw*0102-positive” for “The HLA-Cw*0102-positive”, “NO: 48) (known to bind HLA-Cw*0102) overnight at 26° C. 3×10^5 cells were used per condition. Following washing in PBS the cells” for “NO: 48). Cells”

VAPWNSLSL (listed as Homo sapiens)
binding to HLA-Cw*0102 [1]: known to bind

GAVPDLATL (listed as Homo sapiens)
activation of KIR2DS2 (pVav1) [2]: Activated

GAVPDLAWL (listed as Homo sapiens)
activation of KIR2DS2 (pVav1) [2]: Activated

LNPSVAATL (listed as Homo sapiens)
activation of NK cells expressing KIR2DS2 [3]: Activates | phosphorylation of DAP12 [4]: induces phosphorylation of DAP12 | killing of L721.174 cells as compared to no peptide or the VAPWNSFAL peptide [5]: killed the L721.174 cell line to greater extent | endogenous processing and presentation from construct [6]: endogenously processed and presented | KIR2DS2 binding to HLA-C*0102 and peptide (KIR2DS2-PE staining) [7]: Binds | level of CD107a degranulation as compared to no peptide ([8]; NK cells from KIR2DS2-positive donors): higher levels of degranulation | level of CD107a degranulation as compared to the VAPWNSFAL peptide alone ([8]; NK cells from KIR2DS2-positive donors, LNPSVAATL in combination with VAPWNSFAL): higher levels of degranulation | binding to HLA-Cw*0102 [9]: Binds

VAPWNSFAL (listed as Homo sapiens) [reference compound]
level of CD107a degranulation as compared to no peptide ([8]; NK cells from both donors (KIR2DS2-positive and KIR2DS2-negative)): lower levels of degranulation
